# Target: the molecule itself
# Assay: two-colour single-particle tracking
protein,measurement,value
pre-B cell receptor (pre-BCR) on the surface of 697 cells (complex) chain 1: GSASAPTLFPLVSCENSPSDTSSVAVGCLAQDFLPDSITFSWKYKNNSDISSTRGFPSVLRGGKYAATSQVLLPSKDVMQGTDEHVVCKVQHPNGNKEKNVPLPVIAELPPKVSVFVPPRDGFFGNPRKSKLICQATGFSPRQIQVSWLREGKQVGSGVTTDQVQAEAKESGPTTYKVTSTLTIKESDWLGQSMFTCRVDHRGLTFQQNASSMCVPDQDTAIRVFAIPPSFASIFLTKSTKLTCLVTDLTTYDSVTISWTRQNGEAVKTHTNISESHPNATFSAVGEASICEDDWNSGERFTCTVTHTDLPSPLKQTISRPKGVALHRPDVYLLPPAREQLNLRESATITCLVTGFSPADVFVQWMQRGQPLSPEKYVTSAPMPEPQAPGRYFAHSILTVSEEEWNTGETYTCVVAHEALPNRVTERTVDKSTEGEVSADEEGFENLWATASTFIVLFLLSLFYSTTVTLFKVK chain 2: QPVLHQPPAMSSALGTTIRLTCTLRNDHDIGVYSVYWYQQRPGHPPRFLLRYFSQSDKSQGPQVPPRFSGSKDVARNRGYLSISELQPEDEAMYYCAMGARSSEKEEREREWEEEMEPTAARTRVP chain 3: LLRPTAASQSRALGPGAPGGSSRSSLRSRWGRFLLQRGSWTGPRCWPRGFQSKHNSVTHVFGSGTQLTVLSQPKATPSVTLFPPSSEELQANKATLVCLMNDFYPGILTVTWKADGTPITQGVEMTTPSKQSNNKYAASSYLSLTPEQWRSRRSYSCQVMHEGSTVEKTVAPAECS chain 4: LWMHKVPASLMVSLGEDAHFQCPHNSSNNANVTWWRVLHGNYTWPPEFLGPGEDPNGTLIIQNVNKSHGGIYVCRVQEGNESYQQSCGTYLRVRQPPPRPFLDMGEGTKNRIITAEGIILLFCAVVPGTLLLFRKRWQNEKLGLDAGDEYEDENLYEGLNLDDCSMYEDISRGLQGTYQDVGSLNIGDVQLEKP chain 5: ARSEDRYRNPKGSACSRIWQSPRFIARKRGFTVKMHCYMNSASGNVSWLWKQEMDENPQQLKLEKGRMEESQNESLATLTIQGIRFEDNGIYFCQQKCNNTSEVYQGCGTELRVMGFSTLAQLKQRNTLKDGIIMIQTLLIILFIIVPIFLLLDKDDSKAGMEEDHTYEGLDIDQTATYEDIVTLRTGEVKWSVGEHPGQE,koff,1.14 s⁻¹
same,stoichiometry N,2

# From PMC5385842 (Science signaling, 2016)
